Assays:
[1] = target: PGD2_new medial C420S (Arabidopsis thaliana) (UniProt Q9FWA3)
[2] = target: the molecule itself; test: semi-native SDS-PAGE with anti-His immunoblot; His-PGD2 variants from cleared E. coli BL21minus extracts, sample buffer without SDS and DTT and without boiling; monomer to dimer

| 6PGDH activity upon GFP-based pull-down from protoplasts, relative to the corresponding wild-type version (% of the corresponding wild-type version) [1] | Binder | stoichiometry N [2] |
| --- | --- | --- |
| 80 | PGD2_new medial C420S (enzyme) MAVQPTRIGLAGLAVMGQNLALNIAEKGFPISVYNRTTSKVDETVERAKKEGNLPLYGFHDPESFVKSIQKPRVIIMLVKAGSPVDQTIKTLSAYLEKGDCIVDGGNEWYENTERREKAVAENGFLYLGMGVSGGEEGARNGPSMMPGGSYEAYKNIEDIVLKVAAQVRDSGPCVTYIGKGGSGNFVKMVHNGIEYGDMQLIAEAYDVLKSVGKLSNEELHSVFSDWNKGELESFLVEITADIFGIKDDKGDGHLVDKVLDKTGMKGTGKWTVQQAAELSVPAPTIESSLDARFLSGLKDERVQAAKVFKAGGFGDILTDQKVDKKQLVDDVRKALYASKICSYAQGMNLIRAKSIEKGWGLKLGELARIWKGGCIIRAIFLDRIKQAYDRNAELANLLVDPEFAKEIIERQSAWRRVVSLAINSGISTPGMSASLAYFDSYRRERLPANLVQAQRDYFGAHTYERTDVEGSFHTEWFKIARQSKI | – |
| – | His-PGD2 wild type (full-length protein) (enzyme, Arabidopsis thaliana, UniProt Q9FWA3 1-486, looked up, Arabidopsis thaliana PGD2 (At3g02360), full-length protein, cDNA cloned in pET16b; Cloning analogous to Hölscher et al. (2016); Found as monomer and dimer on the semi-native gel; source: E. coli BL21minus (G6PDH-deficient), in cleared extract) MAVQPTRIGLAGLAVMGQNLALNIAEKGFPISVYNRTTSKVDETVERAKKEGNLPLYGFHDPESFVKSIQKPRVIIMLVKAGSPVDQTIKTLSAYLEKGDCIVDGGNEWYENTERREKAVAENGFLYLGMGVSGGEEGARNGPSMMPGGSYEAYKNIEDIVLKVAAQVRDSGPCVTYIGKGGSGNFVKMVHNGIEYGDMQLIAEAYDVLKSVGKLSNEELHSVFSDWNKGELESFLVEITADIFGIKDDKGDGHLVDKVLDKTGMKGTGKWTVQQAAELSVPAPTIESSLDARFLSGLKDERVQAAKVFKAGGFGDILTDQKVDKKQLVDDVRKALYASKICSYAQGMNLIRAKSIEKGWGLKLGELARIWKGGCIIRAIFLDRIKQAYDRNAELANLLVDPEFAKEIIERQSAWRRVVCLAINSGISTPGMSASLAYFDSYRRERLPANLVQAQRDYFGAHTYERTDVEGSFHTEWFKIARQSKI | 2 |

Reference: publication PMC11103113, “Evidence for dual targeting control of Arabidopsis 6-phosphogluconate dehydrogenase isoforms by N-terminal phosphorylation” (Journal of Experimental Botany, 2024)
